According to publication doi:10.1101/2025.11.14.688508 (bioRxiv, 2025):

Molecular target: the molecule itself
Assay: SEC

B1: DY-647P1-labeled recombinant human Bax single cysteine mutant (S4C, C62S, C126S) (natural protein)
chain: MDGCGEQPRGGGPTSSEQIMKTGALLLQGFIQDRAGRMGGEAPELALDPVPQDASTKKLSESLKRIGDELDSNMELQRMIAAVDTDSPREVFFRVAADMFSDGNFNWGRVVALFYFASKLVLKALSTKVPELIRTIMGWTLDFLRERLLGWIQDQGGWDGLLSYFGTPTWQTVTIFVAGVLTASLTIWKKMG
modifications: cysteine labeling with DY-647P1 (single cysteine mutant; degree of labeling ~74 %)
binding result: binds
